# Several values for one entry are separate records, joined by “and”; a condition that tells them apart may be missing. Equal values may be shown once.
# Target: the molecule itself
# Experiment: AUC
row,Protein,stoichiometry N
1,"full length ODC wildtype (enzyme, human, UniProt P11926 1-461, looked up) MNNFGNEEFDCHFLDEGFTAKDILDQKINEVSSSDDKDAFYVADLGDILKKHLRWLKALPRVTPFYAVKCNDSKAIVKTLAATGTGFDCASKTEIQLVQSLGVPPERIIYANPCKQVSQIKYAANNGVQMMTFDSEVELMKVARAHPKAKLVLRIATDDSKAVCRLSVKFGATLRTSRLLLERAKELNIDVVGVSFHVGSGCTDPETFVQAISDARCVFDMGAEVGFSMYLLDIGGGFPGSEDVKLKFEEITGVINPALDKYFPSDSGVRIIAEPGRYYVASAFTLAVNIIAKKIVLKEQTGSDDEDESSEQTFMYYVNDGVYGSFNCILYDHAHVKPLLQKRPKPDEKYYSSSIWGPTCDGLDRIVERCDLPEMHVGDWMLFENMGAYTVAAASTFNGFQRPTIYYVMSGPAWQLMQQFQNPDFPPEVEEQDASTLPVSCAWESGMKRHRAACASASINV",2
2,"full length ODC G84R (enzyme, human, UniProt P11926 1-461, looked up) MNNFGNEEFDCHFLDEGFTAKDILDQKINEVSSSDDKDAFYVADLGDILKKHLRWLKALPRVTPFYAVKCNDSKAIVKTLAATRTGFDCASKTEIQLVQSLGVPPERIIYANPCKQVSQIKYAANNGVQMMTFDSEVELMKVARAHPKAKLVLRIATDDSKAVCRLSVKFGATLRTSRLLLERAKELNIDVVGVSFHVGSGCTDPETFVQAISDARCVFDMGAEVGFSMYLLDIGGGFPGSEDVKLKFEEITGVINPALDKYFPSDSGVRIIAEPGRYYVASAFTLAVNIIAKKIVLKEQTGSDDEDESSEQTFMYYVNDGVYGSFNCILYDHAHVKPLLQKRPKPDEKYYSSSIWGPTCDGLDRIVERCDLPEMHVGDWMLFENMGAYTVAAASTFNGFQRPTIYYVMSGPAWQLMQQFQNPDFPPEVEEQDASTLPVSCAWESGMKRHRAACASASINV",2 and 3

# Reference: paper PMC9520691 (ACS Omega, 2022)
